In patent US20100143268A1, “Formulations for Delivery Via Pressurised Metered Dose Inhalers Comprising an Essential Oil as Suspension Stabiliser” (priority 2006, published 2010):

Key:
[1] = Tong et al, Pharm. Res. (2001) 18, 852-858; cited from earlier work
[2] = Integrity of insulin by GPC, HPLC, circular dichroism and fluorescence spectroscopy; format: physicochemical
Protocol: The formulations were also assessed for the integrity of insulin using gel permeation chromatography (GPC), high performance liquid chromatography (HPLC), circular dichroism and fluorescence spectroscopy.

Molecule	aqueous solubility [1] [µg/mL]	chemical degradation of insulin during the formulation process ([2]; GPC and HPLC chromatograms compared to standard insulin)	secondary structures of insulin after processing ([2]; far-UV circular dichroism, from the nanoparticles after delivery from the pMDI vs unprocessed control)	tertiary structures of insulin after processing ([2]; near-UV CD, peak around 275 nm, confirmed by fluorescence spectra)
OCc1cc(C(O)CNCCCCCCOCCCCc2ccccc2)ccc1O (stereo not shown) [SX, Salmeterol Xinafoate]	66 to 81			
insulin		not chemically degraded	retained	retention
